{"source": "patent US20130079286A1", "about": "(Pieris, published 2013)", "key": {"ovalbumin": {"biological_target": "T1, ovalbumin (UniProt P01012 2-386)", "T1 sequence (looked up)": "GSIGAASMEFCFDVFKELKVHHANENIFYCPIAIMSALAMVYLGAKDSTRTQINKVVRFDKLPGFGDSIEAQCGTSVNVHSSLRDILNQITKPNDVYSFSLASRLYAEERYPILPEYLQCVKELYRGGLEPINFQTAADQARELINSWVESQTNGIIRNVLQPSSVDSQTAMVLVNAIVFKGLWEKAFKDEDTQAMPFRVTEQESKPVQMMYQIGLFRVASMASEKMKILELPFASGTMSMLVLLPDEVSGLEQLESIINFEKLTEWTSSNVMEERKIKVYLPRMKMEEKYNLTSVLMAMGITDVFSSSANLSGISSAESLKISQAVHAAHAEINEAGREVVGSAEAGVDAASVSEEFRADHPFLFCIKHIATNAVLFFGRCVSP", "assay": "capture ELISA: 1 µM Lcn2 protein captured via Strep-tag II on coated StrepMAB-Immo, biotinylated target titrated, ExtrAvidin/AP + pNPP", "experimental": "(§1) FIG. 5 depicts the binding activity of the Lcn2 muteins H1-G1, S1-A4, and US7 in capture ELISAs with different biotinylated Aβ targets. StrepMAB-Immo at 10 μg/ml was immobilized on microtitre plates and employed for capturing of 1 JAM Lcn2 muteins via the Strep-tag H. In figures A to C the binding of the Lcn2 muteins S1-A4 and US7 to (A) biotinylated Aβ40, (B) biotinylated Trx-Aβ28, and (C) biotinylated MBP-Aβ40 are shown. Binding was detected by incubation with ExtrAvidin/AP and a subsequent chromogenic reaction with pNPP. Ovalbumin (Ova), thioredoxin (Trx), and maltose binding protein (MBP) were used as negative controls. Additionally, binding of wild-type (wt) lipocalin was tested. The data were fitted to a monovalent binding model.\n(§2) For selective capturing of the Lcn2 muteins carrying the C-terminal Strep-tag II (Schmidt and Skerra (2007) Nat. Protoc. 2, 1528-1535), a 96-well MaxiSorp polystyrene microtitre plate (Nunc, Langenselbold, Germany) was coated with 10 μg/mL StrepMAB-Immo (IBA, Göttingen, Germany) in PBS over night at 4° C. and blocked with 3% (w/v) BSA in PBS/T at room temperature for 1 h. After 3 washing steps with PBS/T, 50 μL of a 1 μM solution of the purified Lcn2 muteins from Example 7 were applied to all wells for 1 h. After washing, 50 μL of a dilution series of the biotinylated targets Aβ40, MBP-Aβ40 or Trx-Aβ28 from Example 2 were added and incubated for 1 h whereby the biotinylated forms of Ova, MBP and Trx from Example 2 served as negative control proteins. The wells were washed again and bound conjugate was detected with 50 μL of ExtrAvidin/AP conjugate (Sigma-Aldrich, Steinheim, Germany) diluted 1:5000 in PBS/T for 1 h, followed by signal development in the presence of 100 μL 0.5 mg/mL p-nitrophenyl phosphate (AppliChem, Darmstadt, Germany) in 100 mM Tris/HCl, pH 8.8, 100 mM NaCl, 5 mM MgCl₂."}, "MBP-Aβ40 fusion protein [1]": {"biological_target": "T2, MBP-Aβ40 fusion protein", "T2 construct": "the entry may be a nucleic acid; Biotin-labelled in the capture ELISA, unlabeled in the direct ELISA and SPR; also called MBP-Abeta40", "assay": "SPR (Biacore), MBP-Aβ40 amine-coupled; same experiment as the 1st table, row 20, column 3, printed with more digits", "experimental": "(§3) FIG. 8 depicts the kinetic real time analysis of Lcn2 muteins S1-A4 (A) and US7 (B) measured on a Biacore instrument at a flow rate of 10 μl/min. The MBP-Aβ40 fusion protein was coupled via amine chemistry on a CMD 200I chip (ΔRU=1455) and each of the purified Lcn2 muteins was applied in a series at different concentrations. The measured signal is shown as a grey line whereas the curve fit is depicted as a black line in each case.\n(§4) Real time analysis of Lcn2 muteins was performed on a Biacore X system (Biacore, Uppsala, Sweden) using PBS/T (PBS containing 0.005% (v/v) Tween 20) as running buffer. A 50 μg/mL solution of MBP-Aβ40 from Example 2 in 10 mM Na-acetate, pH 4.5 was immobilized onto a […] chip (Xantec, Düsseldorf, Germany) using standard amine coupling chemistry, resulting in a ligand density of 1455 resonance units (RU). […] The sensorgrams were corrected by subtraction of the corresponding signals measured for the control channel, which had been activated and blocked with ethanolamine. […] During this step the kₒₙ and koff rates were fitted globally, while the maximum response difference Rₘₐₓ was fitted locally for each curve."}, "Trx-Aβ28 fusion protein [2]": {"biological_target": "T3, Trx-Aβ28 fusion protein (Escherichia coli (strain K12), UniProt P0AA25 1-76 = thioredoxin, Biotin-labelled through an NHS ester (2:1) in the capture and competitive ELISAs; unlabeled in the direct ELISA and as competitor.)", "T3 construct": "the entry may be a nucleic acid; also called TrxAbeta28H6", "assay": "capture ELISA: mutein captured, biotinylated Trx-Aβ28 titrated", "experimental": "as §1, §2"}, "MBP-Aβ40 fusion protein [3]": {"biological_target": "T2, MBP-Aβ40 fusion protein", "assay": "capture ELISA: mutein captured, biotinylated MBP-Aβ40 titrated", "experimental": "as §1\nFor selective capturing of the Lcn2 muteins carrying the C-terminal Strep-tag II (Schmidt and Skerra (2007) Nat. Protoc. 2, 1528-1535), a 96-well MaxiSorp polystyrene microtitre plate (Nunc, Langenselbold, Germany) was coated with 10 μg/mL StrepMAB-Immo (IBA, Göttingen, Germany) in PBS over night at 4° C. and blocked with 3% (w/v) BSA in PBS/T at room temperature for 1 h. After 3 washing steps with PBS/T, 50 μL of a 1 μM solution of the purified Lcn2 muteins from Example 7 were applied to all wells for 1 h. […]"}, "Trx-Aβ28 fusion protein [4]": {"biological_target": "T3, Trx-Aβ28 fusion protein", "assay": "competitive ELISA: mutein captured, 40 nM biotinylated Trx-Aβ28 as tracer, unlabeled Trx-Aβ28 varied as competitor", "experimental": "Alternatively, a “competitive” ELISA was performed in a similar manner as the “capture” ELISA described above. Again, after immobilizing StrepMAB-Immo and washing, 50 μL of a 1 μM solution of the purified Lcn2 mutein from Example 7 was applied to all wells for 1 h. After washing, the biotinylated target Trx-Aβ28 from Example 2 was applied at a fixed concentration of 5 nM (for S1-A4) or 40 nM (for US7) in the presence of varying concentrations of the free non-labeled Trx-Aβ28 target as competitor. Starting with a 100-fold excess, the competitor concentration was decreased by the factor 3 in each step. In this case, the data were fitted to the sigmoidal equation"}, "central peptide Aβ16-27": {"biological_target": "T4, central peptide Aβ16-27", "T4 construct": "Bought from the Peptide Speciality Laboratory", "T4 peptide": "KLVFFAEDVGSN", "assay": "capture ELISA: mutein captured, Aβ16-27 titrated"}, "[5]": {"biological_target": "T5, Aβ40 peptide, non-labeled (human)", "T5 construct": "Non-labeled synthetic peptide (W. M. Keck Laboratory); also called Abeta40; amyloid beta peptide", "T5 sequence (peptide, as listed by the source)": "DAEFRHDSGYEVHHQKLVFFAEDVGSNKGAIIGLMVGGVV", "assay": "SPOT membrane of overlapping Aβ40 peptides, 100 nM mutein"}, "MBP-Aβ40 fusion protein [6]": {"biological_target": "T2, MBP-Aβ40 fusion protein", "assay": "SPR (Biacore X), MBP-Aβ40 amine-coupled, mutein as analyte", "experimental": "as §4"}, "[7]": {"biological_target": "T6, biotinylated Aβ40 peptide (human, C-terminal biotin group attached via a lysine spacer)", "T6 construct": "Synthetic peptide (Peptide Speciality Laboratory) with a C-terminal biotin on a lysine spacer; used in the capture ELISAs", "T6 sequence (peptide, as listed by the source)": "as above", "assay": "capture ELISA: mutein captured via Strep-tag II on StrepMAB-Immo, biotinylated Aβ40 titrated", "experimental": "as §1, §2"}, "MBP-Aβ40 fusion protein [8]": {"biological_target": "T2, MBP-Aβ40 fusion protein", "assay": "SPR (Biacore), MBP-Aβ40 amine-coupled (1455 RU), mutein as analyte", "experimental": "as §3, §4"}, "Trx-Aβ28 fusion protein [9]": {"biological_target": "T3, Trx-Aβ28 fusion protein", "assay": "direct ELISA: Trx-Aβ28 coated, mutein titrated, detected via Strep-tag II", "experimental": "(§5) The Aβ targets Trx-Aβ28 and MBP-Aβ40 as well as the control protein maltose binding protein (MBP) were immobilized at 2 μM in PBS over night. Bound Lcn2 muteins were detected via their Strep-tag II using Streptavidin/AP followed by a chromogenic reaction with pNPP. As a control, the binding of wild-type (wt) lipocalin was tested. The data were fitted to a monovalent binding model.\n(§6) Alternatively, for a “direct” ELISA, 2 μM unlabeled Aβ40 target from Example 2 was adsorbed onto a 96-well MaxiSorp polystyrene microliter plate (Nunc, Langenselbold, Germany) and incubated with the purified Lcn2 mutein, which was detected via the Strep-tag II using a 1:1500 dilution of Streptavidin/AP conjugate (GE Healthcare UK Ltd, Buckinghamshire, UK). As a control, 2 μM MBP from Example 2 was adsorbed onto the ELISA plate. Absorption at 405 nm was measured in a SpectraMax 250 reader (Molecular Devices, Sunnyvale, USA)."}, "MBP-Aβ40 fusion protein [10]": {"biological_target": "T2, MBP-Aβ40 fusion protein", "assay": "direct ELISA: MBP-Aβ40 coated, mutein titrated, detected via Strep-tag II", "experimental": "as §5, §6"}, "[11]": {"biological_target": "T6, biotinylated Aβ40 peptide", "assay": "capture ELISA: 1 µM Lcn2 protein captured via Strep-tag II on coated StrepMAB-Immo, biotinylated target titrated, ExtrAvidin/AP + pNPP", "experimental": "as §1, §2"}, "Trx-Aβ28 fusion protein [12]": {"biological_target": "T3, Trx-Aβ28 fusion protein", "assay": "capture ELISA: 1 µM Lcn2 protein captured via Strep-tag II on coated StrepMAB-Immo, biotinylated target titrated, ExtrAvidin/AP + pNPP", "experimental": "as §1, §2"}, "[13]": {"biological_target": "T5, Aβ40 peptide, non-labeled", "assay": "SPOT membrane of overlapping Aβ40 peptides"}, "[14]": {"biological_target": "T7, recombinant human fibronectin fragment FN7B8 (human, UniProt P02751 1173-1448)", "T7 construct": "no separate number is printed for the protein, so the entry may be a nucleic acid", "T7 sequence (P02751 other isoform, or with tags, fused parts or gaps limits assumed)": "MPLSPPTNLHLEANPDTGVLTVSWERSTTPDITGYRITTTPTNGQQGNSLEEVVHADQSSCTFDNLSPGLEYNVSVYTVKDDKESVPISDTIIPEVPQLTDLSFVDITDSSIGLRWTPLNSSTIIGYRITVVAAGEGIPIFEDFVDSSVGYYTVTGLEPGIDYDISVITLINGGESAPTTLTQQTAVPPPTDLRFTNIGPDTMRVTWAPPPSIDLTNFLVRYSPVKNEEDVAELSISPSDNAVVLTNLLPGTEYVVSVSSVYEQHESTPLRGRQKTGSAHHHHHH", "assay": "ELISA: FN7B8 coated, Lcn2 protein titrated, detected via Strep-tag II with Streptavidin-alkaline phosphatase + pNPP", "experimental": "FIG. 12 depicts binding activity in the ELISA. A microliter plate was coated with the purified proteins FN7B8 and FN789 and incubated with a dilution series of the selected Lcn2 muteins, followed by detection with Streptavidin-alkaline-phosphatase conjugate and pNPP substrate.\nTo adsorb FN7B8 or FN789 onto the surface of a 96-well Nunc Maxisorp plate (Thermo Fisher Scientific, Langenselbold, Germany) 50 μl of a 100 μg/ml protein solution in TBS/E was added per well and incubated at room temperature for 2 h. Additionally, to include control proteins, blank wells were exposed to 120 μl 2% (w/v) BSA (AppliChem, Darmstadt, Germany) in TBS/ET. […] The wells were washed again and bound Lcn2 muteins were detected with 50 μL of Streptavidin-alkaline phosphatase conjugate (GE Healthcare, Munich, Germany) diluted 1:1500 in TBS/T for 1 h, followed by signal development in the presence of 50 μl 0.5 mg/ml p-nitrophenyl phosphate in 100 mM Tris/HCl, 100 mM NaCl, 5 mM MgCl₂, pH 8.8. The time course of absorption AA/At at 405 nm was measured in a SpectraMax 250 reader (Molecular Devices, Sunnyvale, Calif.) and the data were fitted with KaleidaGraph software (Synergy software, Reading, Pa.) to the equation"}}, "data": [{"binder": "Lcn2 mutein US7 (designed binder) QDSTSDLIPAPPLSKVPLQQNFQDNQFHGKWYVVGVAGNKSLREDKDPWKMYATIYELKEDKSYNVTSVGFGTKKCHYKIRTFVPGSQPGEFTLGRIKSRPGRTSALVRVVSTNYNQHAMVFFKVVQQNRESFNITLYGRTKELTSELKENFIRFSKSLGLPENHIVFPVPIDQCIDG", "values": [{"measurement": "binding result", "setting": "ovalbumin", "value": "no binding (tested: 250 nM)"}, {"measurement": "Kd", "setting": "MBP-Aβ40 fusion protein [1]", "value": 1.25, "unit": "nM"}, {"measurement": "Kd", "setting": "Trx-Aβ28 fusion protein [2]", "value": 2.4, "unit": "nM"}, {"measurement": "Kd", "setting": "MBP-Aβ40 fusion protein [3]", "value": 11.4, "unit": "nM"}, {"measurement": "Kd", "setting": "Trx-Aβ28 fusion protein [4]", "value": 76.9, "unit": "nM"}, {"measurement": "Kd", "setting": "central peptide Aβ16-27", "value": 2.1, "unit": "nM"}, {"measurement": "binding result", "setting": "[5]", "value": "binds"}, {"measurement": "Kd", "setting": "MBP-Aβ40 fusion protein [6]", "value": 1.3, "unit": "nM"}, {"measurement": "Kd", "setting": "[7]", "value": 6.8, "unit": "nM"}, {"measurement": "koff", "setting": "MBP-Aβ40 fusion protein [8]", "value": 0.000252, "unit": "s⁻¹"}, {"measurement": "kon", "setting": "MBP-Aβ40 fusion protein [8]", "value": 202000, "unit": "M⁻¹ s⁻¹"}, {"measurement": "Kd", "setting": "Trx-Aβ28 fusion protein [9]", "value": 9.6, "unit": "nM"}, {"measurement": "Kd", "setting": "MBP-Aβ40 fusion protein [10]", "value": 49.7, "unit": "nM"}]}, {"binder": "recombinant wild-type human Lipocalin 2 (other, also called wt Lcn2; wild type Lcn2) QDSTSDLIPAPPLSKVPLQQNFQDNQFQGKWYVVGLAGNAILREDKDPQKMYATIYELKEDKSYNVTSVLFRKKKCDYWIRTFVPGSQPGEFTLGNIKSYPGLTSYLVRVVSTNYNQHAMVFFKKVSQNREYFKITLYGRTKELTSELKENFIRFSKSLGLPENHIVFPVPIDQCIDG", "values": [{"measurement": "binding result", "setting": "ovalbumin", "value": "no binding (tested: 250 nM)"}, {"measurement": "binding result", "setting": "[11]", "value": "no binding"}, {"measurement": "binding result", "setting": "Trx-Aβ28 fusion protein [12]", "value": "no binding"}, {"measurement": "binding result", "setting": "[13]", "value": "no binding (tested: 100 nM)"}, {"measurement": "binding result", "setting": "[14]", "value": "no binding (tested: 250 nM)"}]}]}
